{"source": "paper PMC7721647", "about": "“The Human RNA Helicase DDX21 Presents a Dimerization Interface Necessary for Helicase Activity” (iScience, 2020)", "key": {"[1]": {"biological_target": "DDX21_(Core-DD) (human)", "assay": "SEC-SAXS; SAXS coupled to size exclusion chromatography; oligomeric state from SAXS molecular weight estimates (Table S3)"}, "[2]": {"biological_target": "DDX21_(Core-DD) (human)", "assay": "SEC-MALS; purified DDX21 constructs alone; conditions in the Transparent Methods (not shown)"}, "[3]": {"biological_target": "DDX21_(Core-DD) (human)", "assay": "mass photometry; purified proteins alone in the low nanomolar range (30 and 15 nM); monomer to dimer"}, "[4]": {"biological_target": "T1, DDX21Fl (human, UniProt Q9NR30 1-783)", "T1 sequence": "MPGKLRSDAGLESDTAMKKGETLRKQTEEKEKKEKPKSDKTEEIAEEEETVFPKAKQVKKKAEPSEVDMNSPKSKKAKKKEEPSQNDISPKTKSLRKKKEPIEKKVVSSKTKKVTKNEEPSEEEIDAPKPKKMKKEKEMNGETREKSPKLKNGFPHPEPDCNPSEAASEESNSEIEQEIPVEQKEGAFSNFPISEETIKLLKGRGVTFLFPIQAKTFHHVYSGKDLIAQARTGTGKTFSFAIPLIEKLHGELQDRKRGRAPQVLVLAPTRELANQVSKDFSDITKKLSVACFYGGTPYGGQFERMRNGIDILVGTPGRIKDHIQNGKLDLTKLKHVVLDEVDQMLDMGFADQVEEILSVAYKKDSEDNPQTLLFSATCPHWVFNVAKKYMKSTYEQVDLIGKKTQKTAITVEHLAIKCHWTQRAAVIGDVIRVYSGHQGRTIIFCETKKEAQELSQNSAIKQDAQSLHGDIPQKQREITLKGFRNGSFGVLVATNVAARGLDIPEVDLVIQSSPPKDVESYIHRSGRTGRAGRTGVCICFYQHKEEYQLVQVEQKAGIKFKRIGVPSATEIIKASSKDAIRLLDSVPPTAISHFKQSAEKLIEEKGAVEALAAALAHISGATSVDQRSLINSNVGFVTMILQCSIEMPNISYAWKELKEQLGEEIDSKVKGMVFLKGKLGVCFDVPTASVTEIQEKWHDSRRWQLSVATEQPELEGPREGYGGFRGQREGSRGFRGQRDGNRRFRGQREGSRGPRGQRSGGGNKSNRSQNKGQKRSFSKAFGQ", "assay": "fluorescence polarization; FP: 50 mM Tris pH 7.5, 50 mM KCl, 5 mM MgCl2, no ATP; Hill-slope fit; temperature not given in the material", "conditions": "protein: recombinant; tags: N-terminal Trx-His6, cut with thrombin; chain copies: 2; label: 5'-FAM on RNA; R-loop: 15-mer RNA on DNA oligo 1; DNA duplex arms with unpaired DNA oligo 2 loop"}, "[5]": {"biological_target": "the molecule itself", "assay": "cell-based or functional assay"}, "[6]": {"biological_target": "the molecule itself", "assay": "SEC-SAXS; SAXS coupled to size exclusion chromatography; oligomeric state from SAXS molecular weight estimates (Table S3)"}, "[7]": {"biological_target": "the molecule itself", "assay": "SEC-MALS; purified DDX21 constructs alone; conditions in the Transparent Methods (not shown)"}, "[8]": {"biological_target": "the molecule itself", "assay": "mass photometry; DDX21Fl-R-loop complex at 30 nM"}}, "data": [{"molecule": "DDX21_(Core-DD) (domain or fragment)", "values": [{"measurement": "stoichiometry N", "setting": "[1]", "value": 2}, {"measurement": "stoichiometry N", "setting": "[2]", "value": 2}, {"measurement": "stoichiometry N", "setting": "[3]", "value": 2}]}, {"molecule": "R-loop (mixed) RNA: GUUUCGGAUCGACGC DNA 1: GTACCCGGGGATCCTCTAGAGTCGAGCGTCGATCCGAAACTTGGCACTGGCCGTCGTTTTACAAC DNA 2: GTTGTAAAACGACGGCCAGTGCCTTTTCCCAGCCTCAATCTCATCACTCTAGAGGATCCCCGGGTAC", "values": [{"measurement": "Kd", "setting": "[4]", "value": "9.2 ± 0.7", "unit": "nM"}]}, {"molecule": "DDX21ΔN monomer mutant (domain or fragment) GAFSNFPISEETIKLLKGRGVTFLFPIQAKTFHHVYSGKDLIAQARTGTGKTFSFAIPLIEKLHGELQDRKRGRAPQVLVLAPTRELANQVSKDFSDITKKLSVACFYGGTPYGGQFERMRNGIDILVGTPGRIKDHIQNGKLDLTKLKHVVLDEVDQMLDMGFADQVEEILSVAYKKDSEDNPQTLLFSATCPHWVFNVAKKYMKSTYEQVDLIGKKTQKTAITVEHLAIKCHWTQRAAVIGDVIRVYSGHQGRTIIFCETKKEAQELSQNSAIKQDAQSLHGDIPQKQREITLKGFRNGSFGVLVATNVAARGLDIPEVDLVIQSSPPKDVESYIHRSGRTGRAGRTGVCICFYQHKEEYQLVQVEQKAGIKFKRIGVPSATEIIKASSKDAIRLLDSVPPTAISHFKQSAEKLIEEKGAVEARRRRRRHISGATSVDQRSLINSNVGFVTMILQCSIEMPNISYAWKELKEQLGEEIDSKVKGMVFLKGKLGVCFDVPTASVTEIQEKWHDSRRWQLSVATEQPELEGPREGYGGFRGQREGSRGFRGQRDGNRRFRGQREGSRGPRGQRSGGGNKSNRSQNKGQKRSFSKAFGQ", "values": [{"measurement": "dsRNA unwinding (in vitro helicase assay with RNase T1), activity relative to the dimeric protein", "setting": "[5]", "value": "~50", "unit": "%"}]}, {"molecule": "DDX21ΔN (domain or fragment, human, UniProt Q9NR30 186-783, looked up, human DDX21 without the N-terminal 185 amino acids (start 186 worked out from this statement); source: Transparent Methods) GAFSNFPISEETIKLLKGRGVTFLFPIQAKTFHHVYSGKDLIAQARTGTGKTFSFAIPLIEKLHGELQDRKRGRAPQVLVLAPTRELANQVSKDFSDITKKLSVACFYGGTPYGGQFERMRNGIDILVGTPGRIKDHIQNGKLDLTKLKHVVLDEVDQMLDMGFADQVEEILSVAYKKDSEDNPQTLLFSATCPHWVFNVAKKYMKSTYEQVDLIGKKTQKTAITVEHLAIKCHWTQRAAVIGDVIRVYSGHQGRTIIFCETKKEAQELSQNSAIKQDAQSLHGDIPQKQREITLKGFRNGSFGVLVATNVAARGLDIPEVDLVIQSSPPKDVESYIHRSGRTGRAGRTGVCICFYQHKEEYQLVQVEQKAGIKFKRIGVPSATEIIKASSKDAIRLLDSVPPTAISHFKQSAEKLIEEKGAVEALAAALAHISGATSVDQRSLINSNVGFVTMILQCSIEMPNISYAWKELKEQLGEEIDSKVKGMVFLKGKLGVCFDVPTASVTEIQEKWHDSRRWQLSVATEQPELEGPREGYGGFRGQREGSRGFRGQRDGNRRFRGQREGSRGPRGQRSGGGNKSNRSQNKGQKRSFSKAFGQ", "values": [{"measurement": "stoichiometry N", "setting": "[6]", "value": 2}]}, {"molecule": "DDX21Fl monomer mutant (enzyme) MPGKLRSDAGLESDTAMKKGETLRKQTEEKEKKEKPKSDKTEEIAEEEETVFPKAKQVKKKAEPSEVDMNSPKSKKAKKKEEPSQNDISPKTKSLRKKKEPIEKKVVSSKTKKVTKNEEPSEEEIDAPKPKKMKKEKEMNGETREKSPKLKNGFPHPEPDCNPSEAASEESNSEIEQEIPVEQKEGAFSNFPISEETIKLLKGRGVTFLFPIQAKTFHHVYSGKDLIAQARTGTGKTFSFAIPLIEKLHGELQDRKRGRAPQVLVLAPTRELANQVSKDFSDITKKLSVACFYGGTPYGGQFERMRNGIDILVGTPGRIKDHIQNGKLDLTKLKHVVLDEVDQMLDMGFADQVEEILSVAYKKDSEDNPQTLLFSATCPHWVFNVAKKYMKSTYEQVDLIGKKTQKTAITVEHLAIKCHWTQRAAVIGDVIRVYSGHQGRTIIFCETKKEAQELSQNSAIKQDAQSLHGDIPQKQREITLKGFRNGSFGVLVATNVAARGLDIPEVDLVIQSSPPKDVESYIHRSGRTGRAGRTGVCICFYQHKEEYQLVQVEQKAGIKFKRIGVPSATEIIKASSKDAIRLLDSVPPTAISHFKQSAEKLIEEKGAVEARRRRRRHISGATSVDQRSLINSNVGFVTMILQCSIEMPNISYAWKELKEQLGEEIDSKVKGMVFLKGKLGVCFDVPTASVTEIQEKWHDSRRWQLSVATEQPELEGPREGYGGFRGQREGSRGFRGQRDGNRRFRGQREGSRGPRGQRSGGGNKSNRSQNKGQKRSFSKAFGQ", "values": [{"measurement": "dsRNA unwinding (in vitro helicase assay with RNase T1), activity relative to the dimeric protein", "setting": "[5]", "value": "~50", "unit": "%"}]}, {"molecule": "full-length DDX21 (DDX21Fl), affinity tag cleaved (enzyme, human, UniProt Q9NR30 1-783, looked up, human DEAD-box RNA helicase DDX21, full length; Tag state is told only for the SEC-MALS mass (cleaved); Construct details are in the Transparent Methods; also called nucleolar RNA helicase II/Guα; source: Transparent Methods) MPGKLRSDAGLESDTAMKKGETLRKQTEEKEKKEKPKSDKTEEIAEEEETVFPKAKQVKKKAEPSEVDMNSPKSKKAKKKEEPSQNDISPKTKSLRKKKEPIEKKVVSSKTKKVTKNEEPSEEEIDAPKPKKMKKEKEMNGETREKSPKLKNGFPHPEPDCNPSEAASEESNSEIEQEIPVEQKEGAFSNFPISEETIKLLKGRGVTFLFPIQAKTFHHVYSGKDLIAQARTGTGKTFSFAIPLIEKLHGELQDRKRGRAPQVLVLAPTRELANQVSKDFSDITKKLSVACFYGGTPYGGQFERMRNGIDILVGTPGRIKDHIQNGKLDLTKLKHVVLDEVDQMLDMGFADQVEEILSVAYKKDSEDNPQTLLFSATCPHWVFNVAKKYMKSTYEQVDLIGKKTQKTAITVEHLAIKCHWTQRAAVIGDVIRVYSGHQGRTIIFCETKKEAQELSQNSAIKQDAQSLHGDIPQKQREITLKGFRNGSFGVLVATNVAARGLDIPEVDLVIQSSPPKDVESYIHRSGRTGRAGRTGVCICFYQHKEEYQLVQVEQKAGIKFKRIGVPSATEIIKASSKDAIRLLDSVPPTAISHFKQSAEKLIEEKGAVEALAAALAHISGATSVDQRSLINSNVGFVTMILQCSIEMPNISYAWKELKEQLGEEIDSKVKGMVFLKGKLGVCFDVPTASVTEIQEKWHDSRRWQLSVATEQPELEGPREGYGGFRGQREGSRGFRGQRDGNRRFRGQREGSRGPRGQRSGGGNKSNRSQNKGQKRSFSKAFGQ", "values": [{"measurement": "stoichiometry N", "setting": "[7]", "value": 2}]}, {"molecule": "full-length DDX21 (DDX21Fl) with uncleaved affinity tag (enzyme, human, UniProt Q9NR30 1-783, looked up, human DEAD-box RNA helicase DDX21, full length; Form used in mass photometry; also called wild-type protein; source: Transparent Methods) MPGKLRSDAGLESDTAMKKGETLRKQTEEKEKKEKPKSDKTEEIAEEEETVFPKAKQVKKKAEPSEVDMNSPKSKKAKKKEEPSQNDISPKTKSLRKKKEPIEKKVVSSKTKKVTKNEEPSEEEIDAPKPKKMKKEKEMNGETREKSPKLKNGFPHPEPDCNPSEAASEESNSEIEQEIPVEQKEGAFSNFPISEETIKLLKGRGVTFLFPIQAKTFHHVYSGKDLIAQARTGTGKTFSFAIPLIEKLHGELQDRKRGRAPQVLVLAPTRELANQVSKDFSDITKKLSVACFYGGTPYGGQFERMRNGIDILVGTPGRIKDHIQNGKLDLTKLKHVVLDEVDQMLDMGFADQVEEILSVAYKKDSEDNPQTLLFSATCPHWVFNVAKKYMKSTYEQVDLIGKKTQKTAITVEHLAIKCHWTQRAAVIGDVIRVYSGHQGRTIIFCETKKEAQELSQNSAIKQDAQSLHGDIPQKQREITLKGFRNGSFGVLVATNVAARGLDIPEVDLVIQSSPPKDVESYIHRSGRTGRAGRTGVCICFYQHKEEYQLVQVEQKAGIKFKRIGVPSATEIIKASSKDAIRLLDSVPPTAISHFKQSAEKLIEEKGAVEALAAALAHISGATSVDQRSLINSNVGFVTMILQCSIEMPNISYAWKELKEQLGEEIDSKVKGMVFLKGKLGVCFDVPTASVTEIQEKWHDSRRWQLSVATEQPELEGPREGYGGFRGQREGSRGFRGQRDGNRRFRGQREGSRGPRGQRSGGGNKSNRSQNKGQKRSFSKAFGQ", "values": [{"measurement": "stoichiometry N", "setting": "[8]", "value": 2}]}]}
